Laboratory results as given in PMC6848931, “Exportin-1-Dependent Nuclear Export of DEAD-box Helicase DDX3X is Central to its Role in Antiviral Immunity” (Cells, 2019).

Target: Exportin-1-Ran-GTP complex (human, UniProt O14980 1-1071; P62826 1-216, Q69L)
Assay: AUC; sedimentation velocity with Ran-GTP present; proteins incubated together at equimolar concentrations at 20 °C for 30 min in GF1 buffer (20 mM Tris-Cl pH 7.5, 100 mM NaCl, 5 mM MgOAc, 2 mM DTT); 40,000 rpm, 280 nm, c(s) analysis
Settings: both partners purified

binding result	Binder
binds	6His-DDX3X(1-580) (domain or fragment, DEAD-box helicase 3, X-linked (DDX3X), human, residues 1-580 of the 662-residue protein; Cloned in pCOLD-IV with an N-terminal 6His tag; no removal of the tag is described; also called wild-type DDX3X(1‒580); DEAD-box helicase 3, X-linked; source: E. coli BL21(DE3), purified (Ni-NTA, Superdex 200 SEC)) MSHVAVENALGLDQQFAGLDLNSSDNQSGGSTASKGRYIPPHLRNREATKGFYDKDSSGWSSSKDKDAYSSFGSRSDSRGKSSFFSDRGSGSRGRFDDRGRSDYDGIGSRGDRSGFGKFERGGNSRWCDKSDEDDWSKPLPPSERLEQELFSGGNTGINFEKYDDIPVEATGNNCPPHIESFSDVEMGEIIMGNIELTRYTRPTPVQKHAIPIIKEKRDLMACAQTGSGKTAAFLLPILSQIYSDGPGEALRAMKENGRYGRRKQYPISLVLAPTRELAVQIYEEARKFSYRSRVRPCVVYGGADIGQQIRDLERGCHLLVATPGRLVDMMERGKIGLDFCKYLVLDEADRMLDMGFEPQIRRIVEQDTMPPKGVRHTMMFSATFPKEIQMLARDFLDEYIFLAVGRVGSTSENITQKVVWVEESDKRSFLLDLLNATGKDSLTLVFVETKKGADSLEDFLYHEGYACTSIHGDRSQRDREEALHQFRSGKSPILVATAVAARGLDISNVKHVINFDLPSDIEEYVHRIGRTGRVGNLGLATSFFNERNINITKDLLDLLVEAKQEVPSWLENMAYEHHY
binds	DDX3X(1-168) (domain or fragment, DEAD-box helicase 3, X-linked (DDX3X), human, residues 1-168; The purification section names only the 1-580 constructs; the expression and purification of the 1-168 fragment are not described on their own; also called DDX3X(1–168) fragment; source: purified recombinant; truncations were cloned in pCOLD-IV for bacterial expression) MSHVAVENALGLDQQFAGLDLNSSDNQSGGSTASKGRYIPPHLRNREATKGFYDKDSSGWSSSKDKDAYSSFGSRSDSRGKSSFFSDRGSGSRGRFDDRGRSDYDGIGSRGDRSGFGKFERGGNSRWCDKSDEDDWSKPLPPSERLEQELFSGGNTGINFEKYDDIPV
